Molecular target: Truncated rat Eag1 (rEag1Δ; Kv10.1 with residues 773-886 removed) (rat) (UniProt Q63472)
Assay: cryo-EM structure

stoichiometry N (CaM molecules per rEag1 tetramer): 4
Substance: calmodulin (from UniProt P0DP23 1-149) (natural protein)

— publication PMC5477842
